Source: patent US20170051021A1, “PEPTIDE AGONISTS OF TOLL-LIKE RECEPTOR 5 LIGAND AND METHOD OF USE” (priority 2014, published 2017)

Tests used:
NF-kB = NF-kB reporter system luciferase assay in transiently transfected CACO-2 cells; format: cell-based; details: CACO-2 cells transfected with mock vector delta NFkB-Luc
Description: All transfections were performed in triplicate in 24-well plates. Approximately 2×10^5 CACO-2 cells per well were seeded 24 h before transfection. Following the manufacturer's instructions, plasmids were transfected into cells using FUGENE transfection reagent (Promega, Medison, Wis.). Briefly, 0.8 μg of reporter plasmids carrying different NF-kB responsive elements (IL8-Luc, IGkB-Luc) plus 0.05 μg of pCMV-LacZ vector were diluted with Opti-MEM and then mixed with diluted liposomes. After 20 min of incubation at room temperature, the mixtures were added to each well. […] Each experiment was conducted a minimum of three times.

Wistar rats = assay: In vivo protective role against lethal irradiation, survival of Wistar rats; parameters: species or system rat; details: 0.1 mg/kg s.c. one hour before single total dose of 9.6 Gy, FIG. 16
Description: One hour later, rats were irradiated for about 30 min with a single total dose of 9.6 Gy and survival was monitored daily (FIG. 16).

B1: VINCRO1 (protein)
chain: LTIQVGANDGETIDIDLKQINSQTLSSSGSSGSSGSSIDAALAQVDALRSDLGAVQNRFNSA
modifications: left off: small tags and cut ends
- luciferase activity with mock vector (specificity control) (NF-kB): no luciferase activity
- protection from lethal irradiation (survival) (Wistar rats): protect Wistar rats from lethal irradiation
